Measurements taken from the supplement of paper PMC10899765.

How the values were obtained:
Settings in all cases: 20 nM; 72 h
MCF10A [1] = assay: one-nucleolus phenotype percent effect (relative to siNT 0% and siNOL11 100%); higher = more cells with one nucleolus (ribosome biogenesis inhibition)
Procedure: (§1)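 After 72 h, cells were fixed and stained with Hoechst and anti-fibrillarin, and nucleoli per nucleus were counted with CellProfiler. Values are plate-adjusted percent effect for the one-nucleolus and 5+ nucleoli phenotypes, normalised to siNT (0%) and to the positive controls siNOL11 or siKIF11 (100%), as the mean of biological triplicates. Percent viability is the nuclei count relative to siNT.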

MCF10A [2] = assay: 5+ nucleoli phenotype percent effect (relative to siNT 0% and siKIF11 100%); higher = more cells with five or more nucleoli
Procedure: as §1

MCF10A [3] = assay: percent viability (nuclei count relative to siNT); higher = more viable cells
Procedure: as §1

| Sequence | one-nucleolus phenotype percent effect (MCF10A [1]) [%] | 5+ nucleoli phenotype percent effect (MCF10A [2]) [%] | percent viability (MCF10A [3]) [%] |
| --- | --- | --- | --- |
| CAACCCUAGGAGAGGGUGCCAUUCA [hsa-miR-652-5p] | 12.5 | -17.7 | 46.2 |
| CAACCUCGACGAUCUCCUCAGC [hsa-miR-3150a-5p] | -25.7 | 22.1 | 171 |
| CAACCUCGAGGAUCUCCCCAGC [hsa-miR-3150b-5p] | -5.6 | 20.8 | 48.1 |
| CAACCUGGAGGACUCCAUGCUG [hsa-miR-490-3p] | -12.6 | 55.8 | 41.3 |
| CAACGGAAUCCCAAAAGCAGCUG [hsa-miR-191-5p] | 11.8 | 2.25 | 29.2 |
| CAACUAGACUGUGAGCUUCUAG [hsa-miR-708-3p] | -31 | 46.1 | 199 |
| CAAGAACCUCAGUUGCUUUUGU [hsa-miR-548b-3p] | -16.6 | 39 | 83.5 |
| CAAGCCUCUCCUGCCCUUCCAG [hsa-miR-7109-3p] | -12.1 | 31.1 | 51.1 |
| CAAGCUCGCUUCUAUGGGUCUG [hsa-miR-99a-3p] | 23.3 | -16.1 | 70 |
| CAAGCUCGUGUCUGUGGGUCCG [hsa-miR-99b-3p] | 8.24 | -2.82 | 84.3 |
| CAAGCUUGUAUCUAUAGGUAUG [hsa-miR-100-3p] | -5.48 | 19.2 | 77.2 |
| CAAGGAGACGGGAACAUGGAGC [hsa-miR-4428] | -16.1 | 32.8 | 69.6 |
| CAAGGCCAAAGGAAGAGAACAG [hsa-miR-4753-5p] | 2.71 | -19.1 | 31.8 |
| CAAGGGACCAAGCAUUCAUUAU [hsa-miR-4475] | 7.86 | -16.1 | 37.7 |
| CAAGUCACUAGUGGUUCCGUU [hsa-miR-224-5p] | 15.4 | -41 | 38.7 |
| CAAGUCUUAUUUGAGCACCUGUU [hsa-miR-1264] | -11.7 | 21.1 | 70 |
| CAAUCACUAACUCCACUGCCAU [hsa-miR-34b-3p] | -6.72 | 11 | 50.1 |
| CAAUGUGAUCUUUUGGAUGUA [hsa-miR-8066] | 56.9 | -37.9 | 30.2 |
| CAAUGUUUCCACAGUGCAUCAC [hsa-miR-33a-3p] | -10.4 | 2.57 | 51.1 |
| CAAUUCUCAAAGGAGCCUCCC [hsa-miR-5571-5p] | 34 | -26.3 | 32.7 |
| CAAUUUAGUGUGUGUGAUAUUU [hsa-miR-32-3p] | -22.3 | 35.1 | 80.6 |
| CACAAGGUAUUGGUAUUACCU [hsa-miR-624-3p] | 71 | -46.2 | 21.1 |
| CACACAAGUGGCCCCCAACACU [hsa-miR-4731-3p] | 8.2 | -12.1 | 29.9 |
| CACACACACACACACACGUAU [hsa-miR-8485] | 57.6 | -36.9 | 15.8 |

| Sequence | one-nucleolus phenotype percent effect (MCF10A [1]) [%] | 5+ nucleoli phenotype percent effect (MCF10A [2]) [%] | percent viability (MCF10A [3]) [%] |
| --- | --- | --- | --- |
| CACACACUGCAAUUACUUUUGC [hsa-miR-603] | -5.16 | 19.5 | 60.9 |
| CACACAGGAAAAGCGGGGCCCUG [hsa-miR-6768-5p] | -20.7 | 24.4 | 55.7 |
| CACACAUAGCAGGUGUAUAUA [hsa-miR-4789-3p] | -24.6 | 39.4 | 67.3 |
| CACAGCAAGUGUAGACAGGCA [hsa-miR-3120-3p] | -20.3 | 22.9 | 51.8 |
| CACAGGACUGACUCCUCACCCCAGUG [hsa-miR-4700-3p] | -16 | 43.2 | 83.5 |
| CACAGGCUUAGAAAAGACAGU [hsa-miR-4438] | -2.67 | 25.6 | 11.8 |
| CACAUAUGAAGUGAGCCAGCAC [hsa-miR-5580-3p] | -6.62 | -31.6 | 56.3 |
| CACAUGGCCGAAACAGAGAAGU [hsa-miR-942-3p] | -19.9 | -8.03 | 32.7 |
| CACAUUACACGGUCGACCUCU [hsa-miR-323a-3p] | 12.4 | -33.7 | 49.9 |
| CACCAGGCAUUGUGGUCUCC [hsa-miR-1911-3p] | 26.3 | -9.8 | 45 |
| CACCAUGGACGGUUUACC [hsa-miR-7153-3p] | 62.9 | -48.4 | 23.4 |
| CACCCAGAUCUGCGGCCUAAU [hsa-miR-1295b-5p] | 34.4 | -30.7 | 29.9 |
| CACCCCCUGUUUCCUGGCCCAC [hsa-miR-4640-3p] | -11.3 | 31.4 | 127 |
| CACCCGGCUGUGUGCACAUGUGC [hsa-miR-941] | -3.88 | -23.6 | 56.3 |
| CACCCGUAGAACCGACCUUGCG [hsa-miR-99b-5p] | 21.8 | -9.05 | 62.9 |
| CACCGACUCUGUCUCCUGCAG [hsa-miR-6510-3p] | 11.7 | -12.7 | 69.9 |
| CACCGGGGAUGGCAGAGGGUCG [hsa-miR-4655-5p] | 24.6 | 15 | 16.1 |
| CACCUCUCCUGGCAUCGCCCC [hsa-miR-6800-3p] | -20.1 | 21.6 | 128 |
| CACCUUGCGCUACUCAGGUCUG [hsa-miR-3200-3p] | -8.76 | -0.139 | 24.5 |
| CACCUUUGUGUCCCCAUCCUGCA [hsa-miR-6782-3p] | -13.1 | 49.2 | 51.1 |
| CACGCUCAUGCACACACCCACA [hsa-miR-574-3p] | -8.15 | -3.95 | 82.7 |
| CACGGCAAAAGAAACAAUCCA [hsa-miR-4445-3p] | -16.4 | 25.7 | 52.2 |
| CACUAGAUUGUGAGCUCCUGGA [hsa-miR-28-3p] | -9.21 | 12.4 | 92.2 |
